Test results: paper PMC9922763 (Frontiers in Molecular Biosciences, 2023)
Where no end group is shown, it is not given here.

B1: aSyn (61–95) BiFC fusion: aSyn residues 61–95, 17-residue linker, N-terminal or C-terminal fragment of Venus (domain or fragment)
chain: not shown
notes: alpha-synuclein (aSyn), residues 61-95, the non-amyloid-B component (NAC) region, 35 amino acids; 17-amino acid linker between the protein of interest and the Venus fragment; One molecule stands for both constructs, aSVN (Venus 1-173) and aSVC (Venus 155-239); the label in each row tells which was used; A start methionine and residues coded by the restriction sites are not described; also called …
B2: IAPP BiFC fusion: human IAPP, 17-residue linker, N-terminal or C-terminal fragment of Venus (peptide)
chain: KCNTATCATQRLANFLVHSSNNFGAILSSTNVGSNTYRPACKIPNDLKQKVMNH
modifications: cysteine pairing not given here; also: fused to N- or C-terminal Venus fragment, not in chain
notes: human islet amyloid polypeptide (IAPP), the 37-amino acid long peptide cut from proIAPP; 17-amino acid linker between the protein of interest and the Venus fragment; One molecule stands for both constructs, IVN (Venus 1-173) and IVC (Venus 155-239); the label in each row tells which was used; a start methionine is not described; also called IVN; IVC; source: HEK293, transfected (pcDNA3.1 zeo+), …

Target: the molecule itself
Assay: split reporter (BiFC, NanoBiT); BiFC with split Venus in transfected HEK293 cells; percent of fluorescent cells by flow cytometry (Accuri C6 plus) 24 h after transfection

Protein	percent of cells with a fluorescent BiFC signal [%]
B1	29.3
B2	19.7
